Test results from patent publication WO2011147762A2.

Key:
[1] = target: ED-B fibronectin antigen protein (recombinant), bound to CNBr activated sepharose 4B (UniProt P02751); assay: ED-B sepharose column, % of total radioactivity bound; Study A; maltose 25 mg/mL; day 1
[2] = target: ED-B fibronectin antigen protein (recombinant), bound to CNBr activated sepharose 4B (UniProt P02751); assay: ED-B sepharose column, % of total radioactivity bound; Study A; sodium thiosulfate 10 mg/mL; day 5
[3] = target: ED-B fibronectin antigen protein (recombinant), bound to CNBr activated sepharose 4B (UniProt P02751); assay: ED-B sepharose column, % of total radioactivity bound; Study A; sodium thiosulfate 50 mg/mL; day 5
[4] = target: ED-B fibronectin antigen protein (recombinant), bound to CNBr activated sepharose 4B (UniProt P02751); assay: ED-B sepharose column, % of total radioactivity bound; Study A; sodium thiosulfate 10 mg/mL; day 3
[5] = target: ED-B fibronectin antigen protein (recombinant), bound to CNBr activated sepharose 4B (UniProt P02751); assay: ED-B sepharose column, % of total radioactivity bound; Study B3; human serum albumin 10 mg/mL; day 0
[6] = target: ED-B fibronectin antigen protein (recombinant), bound to CNBr activated sepharose 4B (UniProt P02751); assay: ED-B sepharose column, % of total radioactivity bound; Study A; inositol 25 mg/mL; day 3
[7] = target: ED-B fibronectin antigen protein (recombinant), bound to CNBr activated sepharose 4B (UniProt P02751); assay: ED-B sepharose column, % of total radioactivity bound; Study B3; ascorbic acid 25 mg/mL; day 5
[8] = target: ED-B fibronectin antigen protein (recombinant), bound to CNBr activated sepharose 4B (UniProt P02751); assay: ED-B sepharose column, % of total radioactivity bound; Study A; no-excipient control (saline); day 1
[9] = target: ED-B fibronectin antigen protein (recombinant), bound to CNBr activated sepharose 4B (UniProt P02751); assay: ED-B sepharose column, % of total radioactivity bound; Study B3; thioglycerol 10 mg/mL; day 5
[10] = target: ED-B fibronectin antigen protein (recombinant), bound to CNBr activated sepharose 4B (UniProt P02751); assay: ED-B sepharose column, % of total radioactivity bound; Study B3; ascorbic acid 25 mg/mL; day 1
[11] = target: ED-B fibronectin antigen protein (recombinant), bound to CNBr activated sepharose 4B (UniProt P02751); assay: ED-B sepharose column, % of total radioactivity bound; Study A; maltose 10 mg/mL; day 7
[12] = target: ED-B fibronectin antigen protein (recombinant), bound to CNBr activated sepharose 4B (UniProt P02751); assay: ED-B sepharose column, % of total radioactivity bound; Study A; methionine 5 mg/mL; day 0
[13] = target: ED-B fibronectin antigen protein (recombinant), bound to CNBr activated sepharose 4B (UniProt P02751); assay: ED-B sepharose column, % of total radioactivity bound; Study A; maltose 5 mg/mL; day 5
[14] = target: ED-B fibronectin antigen protein (recombinant), bound to CNBr activated sepharose 4B (UniProt P02751); assay: ED-B sepharose column, % of total radioactivity bound; Study A; inositol 25 mg/mL; day 7
[15] = target: ED-B fibronectin antigen protein (recombinant), bound to CNBr activated sepharose 4B (UniProt P02751); assay: ED-B sepharose column, % of total radioactivity bound; Study A; inositol 10 mg/mL; day 5
[16] = target: ED-B fibronectin antigen protein (recombinant), bound to CNBr activated sepharose 4B (UniProt P02751); assay: ED-B sepharose column, % of total radioactivity bound; Study A; sodium thiosulfate 50 mg/mL; day 7
[17] = target: ED-B fibronectin antigen protein (recombinant), bound to CNBr activated sepharose 4B (UniProt P02751); assay: ED-B sepharose column, % of total radioactivity bound; Study A; inositol 10 mg/mL; day 1
[18] = target: ED-B fibronectin antigen protein (recombinant), bound to CNBr activated sepharose 4B (UniProt P02751); assay: ED-B sepharose column, % of total radioactivity bound; Study A; sodium thiosulfate 5 mg/mL; day 7
[19] = target: ED-B fibronectin antigen protein (recombinant), bound to CNBr activated sepharose 4B (UniProt P02751); assay: ED-B sepharose column, % of total radioactivity bound; Study A; methionine 5 mg/mL; day 1
[20] = target: ED-B fibronectin antigen protein (recombinant), bound to CNBr activated sepharose 4B (UniProt P02751); assay: ED-B sepharose column, % of total radioactivity bound; Study A; no-excipient control (saline); day 5
[21] = target: ED-B fibronectin antigen protein (recombinant), bound to CNBr activated sepharose 4B (UniProt P02751); assay: ED-B sepharose column, % of total radioactivity bound; Study A; trolox 5 mg/mL; day 5
[22] = target: ED-B fibronectin antigen protein (recombinant), bound to CNBr activated sepharose 4B (UniProt P02751); assay: ED-B sepharose column, % of total radioactivity bound; Study B3; inositol 10 mg/mL; day 5
[23] = target: ED-B fibronectin antigen protein (recombinant), bound to CNBr activated sepharose 4B (UniProt P02751); assay: ED-B sepharose column, % of total radioactivity bound; Study B3; human serum albumin 10 mg/mL; day 7
[24] = target: ED-B fibronectin antigen protein (recombinant), bound to CNBr activated sepharose 4B (UniProt P02751); assay: ED-B sepharose column, % of total radioactivity bound; Study A; inositol 50 mg/mL; day 3
[25] = target: ED-B fibronectin antigen protein (recombinant), bound to CNBr activated sepharose 4B (UniProt P02751); assay: ED-B sepharose column, % of total radioactivity bound; Study A; inositol 25 mg/mL; day 0
[26] = target: ED-B fibronectin antigen protein (recombinant), bound to CNBr activated sepharose 4B (UniProt P02751); assay: ED-B sepharose column, % of total radioactivity bound; Study A; methionine 10 mg/mL; day 1
[27] = target: ED-B fibronectin antigen protein (recombinant), bound to CNBr activated sepharose 4B (UniProt P02751); assay: ED-B sepharose column, % of total radioactivity bound; Study A; maltose 10 mg/mL; day 5
[28] = target: ED-B fibronectin antigen protein (recombinant), bound to CNBr activated sepharose 4B (UniProt P02751); assay: ED-B sepharose column, % of total radioactivity bound; Study A; no-excipient control (saline); day 3

131I L19-SIP (radioiodinated L19 SIP homodimer), sequence (chain): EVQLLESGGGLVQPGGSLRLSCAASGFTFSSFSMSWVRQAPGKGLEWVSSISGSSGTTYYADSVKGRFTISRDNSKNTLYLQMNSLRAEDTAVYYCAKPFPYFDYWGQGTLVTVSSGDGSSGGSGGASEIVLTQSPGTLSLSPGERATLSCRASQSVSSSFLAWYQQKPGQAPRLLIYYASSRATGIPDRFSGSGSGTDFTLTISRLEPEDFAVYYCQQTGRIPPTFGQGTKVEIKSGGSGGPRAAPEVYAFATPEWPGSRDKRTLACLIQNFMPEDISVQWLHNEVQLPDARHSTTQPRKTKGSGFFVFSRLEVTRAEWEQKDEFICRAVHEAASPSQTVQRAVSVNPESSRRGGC
131I L19-SIP (radioiodinated L19 SIP homodimer), sequence (chain): as above
UniProt P02751, sequence (P02751 1266-1356 limits assumed): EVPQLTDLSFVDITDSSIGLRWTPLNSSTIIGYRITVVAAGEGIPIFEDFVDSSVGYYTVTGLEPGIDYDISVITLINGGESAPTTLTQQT

131I L19-SIP (radioiodinated L19 SIP homodimer)
Immunoreactivity (%) [1]: 86.4% | Immunoreactivity (%) [2]: 81.3% | Immunoreactivity (%) [3]: 91.5% | Immunoreactivity (%) [4]: 88.5% | Immunoreactivity (IR) (%) [5]: 76.3% | Immunoreactivity (%) [6]: 68.5% | Immunoreactivity (IR) (%) [7]: 64.7% | Immunoreactivity (%) [8]: 81.6% | Immunoreactivity (IR) (%) [9]: 46.8% | Immunoreactivity (IR) (%) [10]: 78% | Immunoreactivity (%) [11]: 53.7% | Immunoreactivity (%) [12]: 96.7% | Immunoreactivity (%) [13]: 57% | Immunoreactivity (%) [14]: 62.8% | Immunoreactivity (%) [15]: 58.9% | Immunoreactivity (%) [16]: 88.2% | Immunoreactivity (%) [17]: 89.5% | Immunoreactivity (%) [18]: 70% | Immunoreactivity (%) [19]: 88% | Immunoreactivity (%) [20]: 47.6% | Immunoreactivity (%) [21]: 65.8% | Immunoreactivity (IR) (%) [22]: 61.2% | Immunoreactivity (IR) (%) [23]: 39.8% | Immunoreactivity (%) [24]: 71.6% | Immunoreactivity (%) [25]: 94.1% | Immunoreactivity (%) [26]: 88.1% | Immunoreactivity (%) [27]: 57.2% | Immunoreactivity (%) [28]: 59.8%
